According to patent US20110059093A1 (Hoffmann-La Roche, published 2011):
Square brackets hold non-standard residues; d marks the D form. Ends that are not written are not given here. pS = N[C@@H](COP(=O)(O)O)C(=O)O

Assays:
[1] = target: T1, Tau fragment Ser-Ile-Asp-Met-Val-Asp-Ser-Pro-Gln-Leu-Ala-Thr-Leu-Ala-Asp (SEQ ID NO:10) (human, also: biotinylated, site not given here); experiment: ELISA, biotinylated peptide on streptavidin plate, anti-rabbit IgG detection
T1 construct: Biotinylated control peptide on streptavidin plates; also called nonphosphorylated Tau fragment; non-phosphorylated Tau (416-430)
T1 peptide: SIDMVDSPQLATLAD
Method: (§1) Rabbit monoclonal antibodies were recombinantly expressed in HEK 293 cells. Cell culture supernatants or purified rabbit antibodies were tested for binding to biotinylated Tau (416-430)[pS422], non-phosphorylated Tau (416-430), KLH (key hole limpet hemocyanine) and the unrelated phospho-peptide MCAK_Human (88-102)[95-pSer] by ELISA. For the preparation of ELISA plates, streptavidine pre-coated microtiter plates were incubated with biotinylated Tau ([…])[pS422] at 50 ng/ml for 1 hour at room temperature. Coating with KLH or control peptides was performed at 1 μg/ml. Rabbit Anti Tau pS422 antibody (Abcam AB51071) or rabbit antibody containing supernatants were incubated in the antigen labeled microtiter plates for 60 min at various concentrations. After intensive washing, the binding of the rabbit antibodies was detected using a sheep anti-rabbit IgG digoxigenin conjugated detection antibody (Chemicon AQ301D). After incubation with TMB at room temperature absorbance at 370 nm-492 nm was measured. The antibody binding was characterized by its EC50 values. The antibody binding to biotinylated Tau (416-430)[pS422] and non-phosphorylated Tau (416-430) peptides was characterized by its EC50 values. Cross-reactivity with KLH or MCAK phosphopeptide was estimated by single-point measurement at high concentrations, i.e. at 1:5 dilution of the cell culture supernatants. […] Binding to KLH and MCAK control phosphopeptide was at background level with all antibodies, which is about […] of the maximal value measures with Tau phosphopeptide.

[2] = target: T2, phosphorylated Tau fragment Ser-Ile-Asp-Met-Val-Asp-Ser(PO3H2)-Pro-Gln-Leu-Ala-Thr-Leu-Ala-Asp (SEQ ID NO:9) (human, also: biotin attached through 1x epsilon-lysine and 4x beta-alanine, site not given here); experiment: as above
T2 construct: also called Tau (416-430)[pS422]; Tau phosphopeptide
T2 peptide: SIDMVD[pS]PQLATLAD
Method: as §1

[3] = target: T2, phosphorylated Tau fragment …; experiment: ELISA, ratio of EC50 values on the two peptides
[4] = target: T3, phosphorylated MCAK fragment Ile-Gln-Lys-Gln-Lys-Arg-Arg-Ser(PO3H2)-Val-Asn-Ser-Lys-Ile-Pro-Ala (SEQ ID NO:17) (human, also: Glu(biotinyl-PEG) coupled to the peptide, site not given here); experiment: ELISA, single point, MCAK phosphopeptide coated
T3 construct: Fragment of human mitotic centromere-associated kinesin (KIF2C, UniProt Q99661 printed); biotinylated control peptide; also called MCAK phosphopeptide
T3 peptide: IQKQKRR[pS]VNSKIPA
Method: as §1

[5] = target: T4, KLH (key hole limpet hemocyanine); experiment: ELISA, single point, KLH coated
T4 construct: Control antigen coated at 1 µg/ml
Method: as §1

[6] = target: T3, phosphorylated MCAK fragment …; experiment: ELISA, biotinylated peptide on streptavidin plate
Method: Peptides representing the Tau pS422 sequence 416-430 (phosphorylated and non phosphorylated) and MCAK_Human (88-102)[95-pSer] were synthesized and biotinylated to allow the coating to a streptavidin labeled microtiter plate. To test for maximal binding of Tau phosphopeptide to the assay plates, different concentrations of Tau phosphopeptide ranging from 1 ng/ml to 2000 ng/ml were used for coating. Finally 50 ng/ml Tau phosphopeptide was used for coating for 60 min at room temperature. Anti Tau pS422 antibodies 2.10.3., 2.20.4. and 5.6.11 were incubated in the peptide labeled microtiter plates for 60 min in concentrations up to 1000 ng/ml. After washing, the binding of the antibodies was detected using an anti-mouse—IgG Fc antibody which was POD-labeled. After incubation with ABTS® for 20 min at room temperature absorbance (O.D.) at 405 nm-492 nm was measured. The antibody binding was determined by EC₅₀. Typical EC₅₀ value could be determined in the range of 100 ng/ml for 2.10.3., 8 ng/ml for 2.20.4. and 1 ng/ml for 5.6.11. The nonphosphorylated Tau fragment and (MCAK_Human (88-102)[95-pSer]) were used as controls. No binding of the control peptides could be observed. Typical back-ground values were around 30 mE (Table 1), which is about 1% of the maximal value measured with phosphorylated Tau fragment. […]

Binder | EC50 [1] [µg/mL] | EC50 [2] [µg/mL] | selectivity compared to non-phosphorylated Tau peptide [3] [fold] | OD 1:5 dilution of supernatant [4] [mE] | OD 1:5 dilution of supernatant [5] [mE] | binding result [6]
anti-Tau pS422 antibody Mab 005 (antibody, V domains shown, Rabbit monoclonal antibody, recombinantly expressed in HEK293 with rabbit kappa and gamma constant regions) VH: QSVEESGGRLVTPGTPLTLTCTVSGLSLSSNAINWVRQAPGKGLEWIGYISTSGNTYYASWAKGRFTISKTSTTVDLKITSPTTEDTATYFCGRGDLWGPGTLVTVSS VL: QVLTQTASPVSAAVGSTVTINCQASQSVYKNNYLAWFQQKPGQPPKRLIYSASTLASGVSSRFKGSGSGTQFTLTISDVQCDDAATYYCLGSCDSSSNNCVAFGGGTEVVVK | 3.73 | < 0.003 | ≥ 100 | 0.067 | 0.026 | –
anti-Tau pS422 antibody Mab 020 (antibody, V domains shown, Rabbit monoclonal antibody, recombinantly expressed in HEK293 with rabbit kappa and gamma constant regions) VH: QSVEESGGRLVTPGTPLTLTCKVSGFSLSSYDMNWVRQAPGKGLEWVGAISTGGNTYYASWAKGRFTISKTSTTVTLTITSPTTADTATYFCARGSSIWGPGTLVTVSL VL: QVLTQTASPVSAAVGSTVTINCQASQSVYKNNYLRWYQQKPGQPPKRLIYTASTLASGVSSRFKGSGSGTQFTLTISDVQCDDAATYYCLGGYDCNSADCWAFGGGTEVVVK | – | – | – | 0.01 | 0.016 | –
anti-Tau pS422 antibody Mab 085 (antibody, V domains shown, Rabbit monoclonal antibody, recombinantly expressed in HEK293 with rabbit kappa and gamma constant regions) VH: QSVEESGGRLVTPGTPLTLTCTVSGLSLSSNAINWVRQAPGKGLEWIGYIAVSGNTYYASWAKGRFTISKASTTVDLKMTSPTAEDTGTYFCGKSNIWGPGTLVTVSL VL: QVLTQTASPVSAAVGITVTISCQSSQSVRTNKLAWFQQKPGQPPKRLIYSASTLDSGVPSRFSASGSGTQFTLTISDVQCDDAATYYCLGYYDCSIADCVAFGGGTEVVVK | 0.146 | 0.0009 | ≥ 100 | 0.062 | 0.029 | –
anti-Tau pS422 antibody Mab 086 (antibody, V domains shown, Rabbit monoclonal antibody, recombinantly expressed in HEK293 with rabbit kappa and gamma constant regions) VH: QSVEESGGRLVTPGTPLTLTCTVSGFSLSSNAINWVRQAPGKGLEWIGYIAVSGNTYYASWAKGRFTISKASTTVDLKMTSPTAEDTGTYFCGKSNIWGPGTLVTVSL VL: QVLTQTTSPVSAAVGSTVTISCQSSQSVRTNKLAWFQQKPGQPPKRLIYSASTLDFGVPSRFSASGSGTQFTLTISDVQCDDAATYYCLGYFDCSIADCVAFGGGTEVVVK | 0.266 | 0.0011 | ≥ 100 | 0.104 | 0.046 | –
Mab2.10.3 (anti-Tau pS422 antibody) (antibody, IgG1, V domains shown, Mouse monoclonal antibody purified from hybridoma supernatant; also called clone 2.10.3; Tau_2.10.3) VH: EVQLVESGGDLVRPGGSLKLSCAASGFTFRTYGMSWVRQTADKRLEWVATISSGGTYTYYADNVRERFTISRDNARDTLYLQMSRLESDDTAMYYCTRRYGYDGGGSFDVWGAGTRVTVSS VL: EIVMTQAAPSVPVTPGESASISCRSNKSLLHSNGNTYLCWFLQRPGQSPQLLIYRMSTLAPGVPDRFSGSGSGTAFTLRISRLEAEDVGVYYCMQHIEYPLTFGAGTKLELK | – | – | – | – | – | no binding (tested: up to 1000 ng/ml)
anti-Tau pS422 antibody Mab 097 (antibody, V domains shown, Rabbit monoclonal antibody, recombinantly expressed in HEK293 with rabbit kappa and gamma constant regions) VH: QSVEESGGRLVTPGTPLTLTCTVSGIDLSSYSITWVRQAPGKGLEYIGFIGTGGSTYYASWAKGRFTISRTSTTVDLKITSPTTEDTATYFCARGGDLWGPGTLVTVSS VL: QVLTQTASSVSAAVGGTVTINCQSSQNVYNNNKLAWFQQKPGQPPKRLIYGASTLASGVSSRFKGSGSGTQFTLTISDLECDDAATYYCLGGYSGNIYTFGGGTEVVVK | 1.28 | 0.0013 | ≥ 100 | 0.029 | 0.042 | –
anti-Tau pS422 antibody Mab 019 (antibody, V domains shown, Rabbit monoclonal antibody, recombinantly expressed in HEK293 with rabbit kappa and gamma constant regions) VH: QSVEESGGRLVTPGTPLTLTCTVSGIDLSSYTMNWVRQAPGKGLDWIGFINSGGYTSYASWTRGRFTISKTSTTVDLRITSPTTEDTATYFCARYGGGSGFDLWGPGTLVTVSS VL: QVLTQTASSVSAAVGGTVTINCQSSQSVYNNRLAWYQQKPGQPPKLLIYKASTLASGVPSRFKGSGSGTQFTLTISDLECDDAATYYCAGGYINIFAFGGGTEVVVK | 1.08 | < 0.003 | ≥ 100 | 0.023 | 0.026 | –
